Patent US11820827B2, “Methods of treating myelodysplastic syndrome and acute myeloid leukemia with nonfucosylated anti-CD70 antibodies” (Seagen Inc., priority 2019, dated 2023)
Where “and” joins values, the source holds several entries; their conditions need not be identical. Equal values may be shown once.

Assays:
[1] = system: NOMO-1 CD70+ AML cell line; experiment: ADCC assay with NK effector cells, NOMO-1; assay type: cell-based, human; details: effector-to-target ratio 10:1, 4 h
Experimental: ADCC activity was evaluated using two CD70+AML cell lines as an ADCC target (FIGS. 3A and 3B). The AML cell lines, MOLM-13 (FIG. 3A) and NOMO-1 (FIG. 3B), were labeled and mixed with titrations of test antibodies or isotype control. Effector cells were isolated from cryopreserved normal donor PBMC using the EasySep Human NK Cell Enrichment Kit (Stem Cell Technologies). Effector cells were added at an effector-to-target cell ratio of 10:1 with […]. After a 4-h incubation, the percent specific cell lysis was calculated.
AML cell lines were grown in appropriate growth medium while incubating at 37° C. in 5% CO2. Suspended cells were counted using ViCell XR cell counter. The required volume of cells was mixed with fresh growth medium and plated at seeding densities of 0.5 M/mL.
The following protocol was used to assess ADCC activity: • 1. Two vials of huPBMCs were thawed in the 37° C. waterbath and resuspended in 1% FBS-RPMI media. Cells were spun down and then NK cells were isolated using the EasySep human NK cell enrichment kit following the manufacturer's protocol. • 2. […] Absorbance per well was measured using the SpectraMax 190 plate reader at 490 nm and the acquired values were converted to text file and exported to Excel and into GraphPad Prism for further data analysis. • 9. […]

[2] = system: MV-411 acute myeloid leukemia model; experiment: Tumor growth in the MV-411 acute myeloid leukemia xenograft model (Example 7); assay type: in vivo, SCID mice; details: for tumor volume, individual animals: h1F6SEA 10 mg/kg Q4dx4
MV4-11 AML xenograft [3] = experiment: Tumor growth in the MV4-11 AML xenograft model, SEA-CD70 and azacitidine (Example 10); assay type: in vivo, SCID mice
MV4-11 AML xenograft [4] = experiment: Tumor growth in the MV4-11 AML xenograft model, SEA-CD70, azacitidine, venetoclax (Example 11); assay type: in vivo, SCID mice; details: antibody 10 mg/kg Q4dx5, azacitidine 2 mg/kg Q1dx5 3 cycles, venetoclax 25 mg/kg oral Q1dx21; comparisons at day 39
Text: Tumor growth was reported as a volume and calculated as an average across animals within each treatment group (FIG. 11A). Immunocompromised SCID mice were implanted with 5×10e6 MV4-11 cells subcutaneously in the flank on day 0. When mean tumor size of 50 mm^3 (measured by using the formula: Volume (mm^3)=0.5*Length*Width^2, where the length is the longer dimension) was reached, mice were randomized into treatment groups of 10 mice per group. Stock concentrations of antibody and chemotherapy were diluted to the appropriate concentration and injected into animals at 10 μl/g of body weight. Tumor length and width, and animal weight were measured two times weekly throughout the study and tumor volume was calculated using the formula above. Animals were followed until tumor volume measured ˜1000 mm^3, at which time the animals were euthanized. Animals were dosed on various schedules based on treatment received; animals receiving antibody were treated with 10 mg/kg of antibody (Q4dx5), azacitidine-treated animals were dosed daily (2 mg/kg) for five consecutive days (Q1dx5) each week, for a total of 3 cycles (3 weeks); venetoclax was given at 25 mg/kg every day by oral gavage for 21 days consecutively (Q1dx21). Animal receiving combination of treatments received each treatment at the same dose and schedule as the single treatments.

[5] = system: Raji NHL Burkitt Lymphoma model; experiment: Survival in the Raji NHL Burkitt Lymphoma mouse model; assay type: in vivo, SCID mice; details: for median survival post implant: untreated 20 days
[6] = system: NOMO-1 CD70+ target cells; experiment: ADCP with monocyte-derived macrophages, NOMO-1; assay type: cell-based, human; details: flow cytometry, antibody dose-dependent
Experimental: Phagocytosis of fluorescently labeled target cells was determined by flow cytometry. Phagocytosis was measured for the appearance of double-labeled coincident events (fluorescent target cells) and anti-CD11c positivity to identify monocyte/macrophages.
The following protocol was used to assess […] activity on AML cell lines: • 1. Target cells were labeled using the PKH26 Red Fluorescent Cell Linker Mini Kit (Sigma Aldrich) and following the manufacturer's instructions. • 2. Cells (4000 cells/well) were incubated with the indicated test articles for 30 minutes, washed and resuspended in RPMI plus 10% ultra-low IgG FBS. • 3. PBMC-derived macrophages (100,000 cells/well), generated by incubating PBMC-derived monocytes with 500 U/mL (50 ng/mL) GM-CSF for 10-12 days, were added to the target cells and incubated at 37° C. for 2 hours. • 4. Plates were centrifuged and cells resuspended in 100 μl of APC-CD11 antibody (macrophage marker) and incubated on ice for 30 minutes. • 5. Cells were washed, resuspended in PBS and analyzed by flow cytometry to determine the percentage of phagocytosis

B1: SEA-CD70: humanized, nonfucosylated monoclonal IgG1 antibody targeting CD70 (nonfucosylated h1F6) (antibody, chains of the INN, looked up, V domains shown)
VH: QVQLVQSGAEVKKPGASVKVSCKASGYTFTNYGMNWVRQAPGQGLKWMGWINTYTGEPTYADAFKGRVTMTRDTSISTAYMELSRLRSDDTAVYYCARDYGDYGMDYWGQGTTVTVSS
VL: DIVMTQSPDSLAVSLGERATINCRASKSVSTSGYSFMHWYQQKPGQPPKLLIYLASNLESGVPDRFSGSGSGTDFTLTISSLQAEDVAVYYCQHSREVPWTFGQGTKVEIK
modifications: nonfucosylated
lysis of target cells in ADCC assay [1]: induced lysis of two CD70 positive AML cell lines in a dose-dependent fashion | delay in tumor growth ([2]; from time to 10× fold change versus untreated, h1F6SEA 10 mg/kg, azacitidine 5 mg/kg): 18% | tumor volume, individual animals ([2]; day 9 post implant): 51.0 mm^3 and 59.2 mm^3 and 59.0 mm^3 and 52.1 mm^3 and 54.1 mm^3 and 58.6 mm^3 | tumor volume, individual animals ([2]; day 13 post implant): 47.1 mm^3 and 56.4 mm^3 and 72.6 mm^3 and 48.7 mm^3 and 68.7 mm^3 and 59.9 mm^3 | tumor volume, individual animals ([2]; day 16 post implant): 65.3 mm^3 and 60.4 mm^3 and 98.2 mm^3 and 90.8 mm^3 and 83.5 mm^3 and 67.6 mm^3 | tumor volume, individual animals ([2]; day 20 post implant): 63.1 mm^3 and 42.0 mm^3 and 165.9 mm^3 and 151.0 mm^3 and 142.8 mm^3 and 93.1 mm^3 | tumor volume, individual animals ([2]; day 24 post implant): 161.4 mm^3 and 70.9 mm^3 and 266.6 mm^3 and 336.7 mm^3 and 299.1 mm^3 and 165.4 mm^3 | tumor volume, individual animals ([2]; day 27 post implant): 254.6 mm^3 and 0.0 mm^3 and 392.1 mm^3 and 447.0 mm^3 and 337.6 mm^3 and 231.0 mm^3 | tumor volume, individual animals ([2]; day 30 post implant): 352.6 mm^3 and 0.0 mm^3 and 661.5 mm^3 and 831.7 mm^3 and 494.8 mm^3 and 365.1 mm^3 | tumor volume, individual animals ([2]; day 34 post implant): 666.1 mm^3 and 15.4 mm^3 and 998.9 mm^3 and 1042.3 mm^3 and 655.6 mm^3 and 531.6 mm^3 | tumor volume, individual animals ([2]; day 38 post implant): 988.1 mm^3 and 63.1 mm^3 and 1005.8 mm^3 and 751.7 mm^3 | tumor volume, individual animals ([2]; day 41 post implant): 66.6 mm^3 and 1024.7 mm^3 | tumor growth delay in one mouse of the group ([2]; h1F6SEA 10 mg/kg, extended the length of the study): very robust tumor growth delay | effect on tumor growth (MV4-11 AML xenograft [3]; antibody 10 mg/kg Q4dx5, azacitidine 2 mg/kg Q1dx5 for 3 cycles): reduce tumor growth | delay in tumor growth (MV4-11 AML xenograft [3]; from time to 10× fold change compared to untreated control): 31% | effect on tumor growth (MV4-11 AML xenograft [4]): delay tumor growth | median survival post implant ([5]; 0.3 mg/kg Q4dx4 intraperitoneally): 36.5 days | median survival post implant ([5]; 1 mg/kg Q4dx4 intraperitoneally): 68 days | total number of animals in group ([5]; 1 mg/kg, day 0): 8 | total number of animals in group ([5]; 1 mg/kg, day 23): 8 | total number of animals in group ([5]; 1 mg/kg, day 30): 7 | total number of animals in group ([5]; 1 mg/kg, day 54): 6 | total number of animals in group ([5]; 1 mg/kg, day 61): 5 | total number of animals in group ([5]; 1 mg/kg, day 75): 4 | total number of animals in group ([5]; 1 mg/kg, day 90): 3 | median survival post implant ([5]; 3 mg/kg Q4dx4 intraperitoneally): 69.5 days | total number of animals in group ([5]; 3 mg/kg, day 0): 8 | total number of animals in group ([5]; 3 mg/kg, day 28): 8 | total number of animals in group ([5]; 3 mg/kg, day 33): 7 | total number of animals in group ([5]; 3 mg/kg, day 64): 5 | total number of animals in group ([5]; 3 mg/kg, day 75): 4 | total number of animals in group ([5]; 3 mg/kg, day 90): 3 | survival compared to untreated mice ([5]; 0.3, 1 and 3 mg/kg): increased survival | total number of animals in group ([5]; .3 mg/kg, day 0): 8 | total number of animals in group ([5]; .3 mg/kg, day 5): 8 | total number of animals in group ([5]; .3 mg/kg, day 33): 7 | total number of animals in group ([5]; .3 mg/kg, day 35): 6 | total number of animals in group ([5]; .3 mg/kg, day 36): 5 | total number of animals in group ([5]; .3 mg/kg, day 37): 4 | total number of animals in group ([5]; .3 mg/kg, day 69): 3 | total number of animals in group ([5]; .3 mg/kg, day 90): 2 | phagocytosis of antibody-coated target cells by macrophages [6]: readily phagocytosed target cells
